{"source": "paper PMC10516644", "target": "MSL2-FLAG (Drosophila) (UniProt P50534)", "sequence (P50534 whole entry)": "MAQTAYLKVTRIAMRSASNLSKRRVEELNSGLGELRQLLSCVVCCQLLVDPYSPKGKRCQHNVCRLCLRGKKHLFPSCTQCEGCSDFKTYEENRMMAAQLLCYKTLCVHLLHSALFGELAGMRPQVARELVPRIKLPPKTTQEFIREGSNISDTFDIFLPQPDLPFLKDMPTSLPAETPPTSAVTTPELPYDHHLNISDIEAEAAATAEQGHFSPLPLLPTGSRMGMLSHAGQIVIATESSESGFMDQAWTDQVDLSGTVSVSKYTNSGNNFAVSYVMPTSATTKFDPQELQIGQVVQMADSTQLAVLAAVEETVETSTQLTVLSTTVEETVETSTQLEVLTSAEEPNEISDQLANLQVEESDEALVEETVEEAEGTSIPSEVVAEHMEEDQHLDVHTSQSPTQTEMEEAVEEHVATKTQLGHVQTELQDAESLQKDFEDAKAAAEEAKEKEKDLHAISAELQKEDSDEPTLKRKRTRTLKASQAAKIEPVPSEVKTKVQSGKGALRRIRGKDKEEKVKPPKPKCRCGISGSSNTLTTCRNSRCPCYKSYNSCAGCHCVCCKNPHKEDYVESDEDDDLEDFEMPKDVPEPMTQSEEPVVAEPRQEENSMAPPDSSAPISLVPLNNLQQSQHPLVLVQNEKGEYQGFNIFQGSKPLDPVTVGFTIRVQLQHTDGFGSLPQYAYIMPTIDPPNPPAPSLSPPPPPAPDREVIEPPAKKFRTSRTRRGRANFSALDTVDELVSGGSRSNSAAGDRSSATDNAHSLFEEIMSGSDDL", "test": "co-IP"}
{"substance": "CLAMP-ΔZF1-FLAG (from UniProt Q9V9N4 1-561) (natural protein)", "values": [{"measurement": "percent co-immunoprecipitated (bound fraction normalised to input)", "result": "< 1", "unit": "%"}]}
